Key:
[1] = target: T1, β2AR (Homo sapiens, UniProt P07550); assay: Receptor internalization (loss of cell surface receptors, flow cytometry), β2AR
[2] = target: T1, β2AR
[3] = target: T1, β2AR; assay: Confocal microscopy of arrestin trafficking with β2AR in HEK-293 cells; format: cell-based; set-up: expressed in transfected cells; host or cells: HEK-293; details: for colocalization with internalized β2AR in endocytic vesicles: fixed HEK-293 cells, HA-β2AR, 15 min isoproterenol; for distribution of YFP fluorescence after isoproterenol: live HEK293 cells over expressing β2AR, 10 μM isoproterenol, 15-30 min
Method: Cells were starved for one hour in serum free media. […] Shown are representative confocal images of YFP-fluorescence followed in the same HEK-293 cells treated for 2, 15 and 30 min at 37° C.
HEK-293 cells were transiently transfected with HA-β2AR and YFP-βarrestin2 (A) or YFP-β-arrestin2-Ub (B). After isoproterenol treatment or not the cells were fixed, permeabilized and stained for receptor with the primary antibody 12CA5 and secondary antibody anti mouse IgG conjugated to Texas Red. Shown are confocal images where receptor is visualized in the Red channels and β-arrestin in the green channels. Colocalization of two proteins is seen as yellow in the overlay. The results are representative of three independent experiments.
HEK-293 cells on 10 cm dishes were transiently transfected with HA-β2AR, HA-V2R, HAβ2ARV2CT, or HAV2Rβ2CT, along with β-arr2-GFP, or YFP-βarrestin2, or YFP-β-arrestin2-Ub. Twenty-four hours post-transfection cells were plated on collagen-coated 35 mm glass bottom plates. Cells were starved for at least 2 hrs in serum free medium prior to stimulation. After stimulation cells were fixed with 4% paraformaldehyde. For visualizing HA-tagged receptors, fixed cells were permeabilized with 0.01% Triton in PBS containing 2% BSA for 20 min and incubated at room temperature with 12CA5 antibody at 1:500 dilution. The secondary antibody, antimouse IgG conjugated to TexasRed, followed this. Antibody incubations were done for one hour followed by repeated washes using PBS. Cells expressing low and equivalent levels of the fluorescent proteins were carefully selected to examine YFP-β-arrestins. Confocal images were obtained on Zeiss LSM510 laser scanning microscope using dual excitation (488, 568 nm) and emission (515-540 nm GFP, YFP; 590-610 nm, Texas red) filter sets. Live images were acquired using a heated (37° C.) microscope stage and collected sequentially using single line excitation (488 nm).

[4] = target: T1, β2AR; assay: Coimmunoprecipitation of YFP-β-arrestins with Flag-β2AR in COS-7 cells; format: binding; set-up: expressed in transfected cells; details: Flag-β2AR IP, 15 minutes of agonist treatment
Text: A) Stability of the ubiquitin chimera in COS-7 cells. […] The bands on the autorad were quantitated using Fluorimager and graphically represented in the figure. The zero time point represents 100% protein. The graph is an average of three independent experiments. B) Interaction of β-arrestin2-Ub chimera with β2AR. […] After stimulation or not the receptor was immunoprecipitated with anti-Flag beads in the absence (left panels) or presence (right panels) of the inhibitor NEM; the IP was blotted for YFP-β-arrestins with a monoclonal antibody to GFP (top panel). […] The blots are representative of similar blots from three independent experiments.
Immunoprecipitation and Irnmunoblofting—To detect ubiquitinated β-arrestin2, β-arrestin2 with a C-terminal Flag epitope was transiently transfected into COS-7 cells. Cells were serum starved for at least 2 hrs and then stimulated or not for the stipulated times with the appropriate agonists. Cells were solubilized in a lysis buffer (LB) containing 50 mM Hepes (pH7.5), 0.5% NP40, 250 mM NaCl, 2 mM EDTA, 10% (vlv) glycerol, 1 mM sodium orthovanadate, 1 mM sodium fluoride, 1 mM phenylmethylsulfonyl fluoride, leupeptin (5 μg/ml) aprotinin (5 μg/ml), pepstatin A (1 μg/ml) benzaminidine (100 μM) 2 μM MG132 and 10 mM NEM. Soluble extracts were mixed with FLAG M2 affinity beads and rotated at 4° C. overnight. […]

[5] = target: T2, V2Rβ2CT (Homo sapiens, UniProt P07550+P30518); assay: Confocal microscopy of arrestin trafficking with V2Rβ2CT in HEK-293 cells; format: cell-based; details: live HEK-293 cells expressing V2Rβ2CT, 15 min and longer
T2 construct: the first 342 amino acids of the V2R (Met1-Cys342); the last 72 amino acids of the β2AR (Leu342 to Leu 413); expressed in transfected cells; host or cells: HEK-293
Method: Twenty-four hours post-transfection cells were plated on collagen-coated 35 mm glass bottom plates. Cells were starved for at least 2 hrs in serum free medium prior to stimulation. After stimulation cells were fixed with 4% paraformaldehyde. For visualizing HA-tagged receptors, fixed cells were permeabilized with 0.01% Triton in PBS containing 2% BSA for 20 min and incubated at room temperature with 12CA5 antibody at 1:500 dilution. The secondary antibody, antimouse IgG conjugated to TexasRed, followed this. Antibody incubations were done for one hour followed by repeated washes using PBS. Cells expressing low and equivalent levels of the fluorescent proteins were carefully selected to examine YFP-β-arrestins. […] Live images were acquired using a heated (37° C.) microscope stage and collected sequentially using single line excitation (488 nm).

Molecule | reduction of internalization ([1]; pretreatment of cells with 200 μM MDC, data not shown) [%] | β2AR internalization ([1]; HEK293 cells, arrestin overexpressed with Flag-β2AR, 10 μM isoproterenol 30 min, mean±SEM) [%] | increase in amount of β2AR degradation [2] | colocalization with internalized β2AR in endocytic vesicles [3] | distribution of YFP fluorescence after isoproterenol [3] | receptor-bound (coimmunoprecipitated) arrestin bands [4] | distribution of YFP fluorescence after AVP [5]
CN(C)c1cccc2c(S(=O)(=O)NCCCCCN)cccc12 [MDC, monodansylcadaverine] | 45 |  |  |  |  |  | 
β-arrestin2: wild type β-arrestin2 overexpressed as comparator |  | 33±1.6 | 6-7% |  |  |  | 
YFP-β-arrestin2: wild type β-arrestin2 tagged with YFP, comparator |  |  |  | did not however contain any YFP-β-arrestin2 | unaltered at 30 min of isoproterenol treatment | not detectable | 
YFP-β-arrestin2-Ub: YFP-labelled β-arrestin2-ubiquitin chimera from pEYFPC1 (SEQ ID NOS:1-2) |  |  |  | colocalize with the internalized β2AR | redistribute from the plasma membrane to endocytic vesicles | detectable with the chimeric protein | moved into endocytic vesicles as early as 15 min

Source: patent US7615610B2, “Modified trafficking patterns for arrestin and G-protein-coupled receptors via arrestin-ubiquitin chimera” (Duke University, priority 2003, dated 2009)
